Source: paper PMC9482650, “Quantitative fragmentomics allow affinity mapping of interactomes” (Nature Communications, 2022)

T1: APBA1_1, Q02410
T1 sequence (Q02410 651-752, limits assumed, looked up): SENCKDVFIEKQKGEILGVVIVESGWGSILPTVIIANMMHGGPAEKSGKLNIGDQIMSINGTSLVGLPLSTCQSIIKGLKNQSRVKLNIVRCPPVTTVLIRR

T2: APBA1_2, Q02410
T2 sequence (Q02410 742-832, limits assumed, looked up): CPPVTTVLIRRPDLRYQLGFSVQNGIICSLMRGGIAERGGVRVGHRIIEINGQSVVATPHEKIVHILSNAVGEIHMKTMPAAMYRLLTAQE

T3: GRIP1_2, Q9Y3R0
T3 sequence (Q9Y3R0 145-248, limits assumed, looked up): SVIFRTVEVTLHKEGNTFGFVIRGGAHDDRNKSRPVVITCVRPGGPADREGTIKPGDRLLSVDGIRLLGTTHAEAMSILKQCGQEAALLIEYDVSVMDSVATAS

T4: GRIP1_3, Q9Y3R0
T4 sequence (Q9Y3R0 247-346, limits assumed, looked up): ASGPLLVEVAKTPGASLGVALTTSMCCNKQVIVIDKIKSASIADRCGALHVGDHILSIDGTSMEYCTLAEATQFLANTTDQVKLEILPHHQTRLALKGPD

T5: GRIP1_4, Q9Y3R0
T5 sequence (Q9Y3R0 467-571, limits assumed, looked up): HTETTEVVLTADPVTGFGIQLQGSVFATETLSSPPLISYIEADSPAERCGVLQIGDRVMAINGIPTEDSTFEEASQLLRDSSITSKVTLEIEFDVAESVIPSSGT

T6: HTRA4, P83105
T6 sequence (P83105 378-476, limits assumed, looked up): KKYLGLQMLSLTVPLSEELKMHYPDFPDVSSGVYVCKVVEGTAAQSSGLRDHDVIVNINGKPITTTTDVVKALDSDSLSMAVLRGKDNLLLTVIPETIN

T7: LIN7A, O14910
T7 sequence (O14910 103-200, limits assumed, looked up): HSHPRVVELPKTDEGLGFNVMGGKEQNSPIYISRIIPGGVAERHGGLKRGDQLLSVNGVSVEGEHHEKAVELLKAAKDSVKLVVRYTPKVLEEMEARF

T8: LRRC7, Q96NW7
T8 sequence (Q96NW7 1440-1537, limits assumed, looked up): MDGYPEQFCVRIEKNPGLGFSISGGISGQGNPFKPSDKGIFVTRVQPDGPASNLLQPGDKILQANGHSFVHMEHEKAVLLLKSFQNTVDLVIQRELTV

T9: PARD3B_1, Q8TEW8
T9 sequence (Q8TEW8 196-299, limits assumed, looked up): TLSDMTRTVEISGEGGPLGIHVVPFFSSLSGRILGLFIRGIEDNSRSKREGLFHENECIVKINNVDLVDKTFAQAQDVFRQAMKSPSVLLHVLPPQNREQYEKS

T10: PCLO, Q9Y6V0
T10 sequence (Q9Y6V0 4491-4600, limits assumed, looked up): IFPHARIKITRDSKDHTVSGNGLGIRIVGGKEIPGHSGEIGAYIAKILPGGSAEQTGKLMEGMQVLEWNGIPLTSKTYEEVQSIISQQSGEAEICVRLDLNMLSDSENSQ

T11: TIAM2, Q8IVF5
T11 sequence (Q8IVF5 885-986, limits assumed, looked up): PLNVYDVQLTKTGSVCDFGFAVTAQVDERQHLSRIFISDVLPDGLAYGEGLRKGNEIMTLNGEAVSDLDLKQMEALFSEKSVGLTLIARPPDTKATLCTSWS


How the values were obtained:
Assay in all cases: holdup assay
Set-up in all cases: key: below the threshold = too weak to quantify, mostly under pKd 3.1 to 4
Conditions in all cases: plain residues with an end cap or a label only (N-terminal biotin on a linker: ado-ado)
[1] = target: T1, APBA1_1, Q02410
[2] = target: T2, APBA1_2, Q02410
[3] = target: ARHGEF12, Q9NZN5-2
[4] = target: DLG2_2, Q15700
[5] = target: DLG5_1, Q8TDM6
[6] = target: FRMPD2_2, Q68DX3
[7] = target: GOPC, Q9HD26
[8] = target: T3, GRIP1_2, Q9Y3R0
[9] = target: T4, GRIP1_3, Q9Y3R0
[10] = target: T5, GRIP1_4, Q9Y3R0
[11] = target: GRIP2_3, Q9C0E4
[12] = target: T6, HTRA4, P83105
[13] = target: Inadl_2, Q8NI35
[14] = target: Inadl_8, Q8NI35
[15] = target: Inadl_9, Q8NI35
[16] = target: T7, LIN7A, O14910
[17] = target: T8, LRRC7, Q96NW7
[18] = target: MAGI2_2, Q86UL8
[19] = target: NHERF2_2, Q15599
[20] = target: NOS1, P29475
[21] = target: T9, PARD3B_1, Q8TEW8
[22] = target: PARD3_3, Q8TEW0
[23] = target: T10, PCLO, Q9Y6V0
[24] = target: PDZRN4_1, Q6ZMN7
[25] = target: PICK1, Q9NRD5
[26] = target: T11, TIAM2, Q8IVF5

Sequence of Inadl_8, Q8NI35 (Q8NI35 1425-1530): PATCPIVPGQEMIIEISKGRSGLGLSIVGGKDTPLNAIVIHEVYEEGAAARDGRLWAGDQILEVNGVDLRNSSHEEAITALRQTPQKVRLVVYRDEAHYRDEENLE
Sequence of NOS1, P29475 (P29475 9-101): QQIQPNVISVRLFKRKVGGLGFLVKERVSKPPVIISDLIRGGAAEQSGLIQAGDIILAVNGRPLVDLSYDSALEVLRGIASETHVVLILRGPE
Sequence of GRIP2_3, Q9C0E4 (Q9C0E4 238-339): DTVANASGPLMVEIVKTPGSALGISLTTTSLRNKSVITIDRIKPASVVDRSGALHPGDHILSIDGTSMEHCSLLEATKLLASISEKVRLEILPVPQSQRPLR
Sequence of PARD3_3, Q8TEW0 (Q8TEW0 582-685): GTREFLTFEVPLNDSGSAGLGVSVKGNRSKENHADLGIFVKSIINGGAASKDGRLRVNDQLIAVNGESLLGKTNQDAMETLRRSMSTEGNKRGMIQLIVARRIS
Sequence of MAGI2_2, Q86UL8 (Q86UL8 410-522): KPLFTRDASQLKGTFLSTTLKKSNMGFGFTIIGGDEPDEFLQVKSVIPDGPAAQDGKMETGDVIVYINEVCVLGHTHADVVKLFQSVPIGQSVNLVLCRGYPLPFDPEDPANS
Sequence of PDZRN4_1, Q6ZMN7 (Q6ZMN7 213-318): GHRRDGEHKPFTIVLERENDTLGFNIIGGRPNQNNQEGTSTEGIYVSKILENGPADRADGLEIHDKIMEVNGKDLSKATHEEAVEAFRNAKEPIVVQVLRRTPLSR
Sequence of NHERF2_2, Q15599 (Q15599 142-238): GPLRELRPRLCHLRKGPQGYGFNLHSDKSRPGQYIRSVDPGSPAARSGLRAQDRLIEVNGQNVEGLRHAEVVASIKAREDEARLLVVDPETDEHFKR
Sequence of FRMPD2_2, Q68DX3 (Q68DX3 944-1038): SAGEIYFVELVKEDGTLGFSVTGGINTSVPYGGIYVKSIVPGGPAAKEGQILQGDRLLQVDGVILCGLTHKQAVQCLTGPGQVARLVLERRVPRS
Sequence of DLG5_1, Q8TDM6 (Q8TDM6 617-713): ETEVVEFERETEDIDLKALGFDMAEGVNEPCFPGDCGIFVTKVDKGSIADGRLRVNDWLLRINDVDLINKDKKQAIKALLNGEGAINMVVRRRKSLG
Sequence of PICK1, Q9NRD5 (Q9NRD5 17-115): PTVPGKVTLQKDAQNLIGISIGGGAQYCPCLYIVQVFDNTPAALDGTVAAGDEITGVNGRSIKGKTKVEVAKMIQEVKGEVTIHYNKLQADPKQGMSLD
Sequence of Inadl_2, Q8NI35 (Q8NI35 238-335): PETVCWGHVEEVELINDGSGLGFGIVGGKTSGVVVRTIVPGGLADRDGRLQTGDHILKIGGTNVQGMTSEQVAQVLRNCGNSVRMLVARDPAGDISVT
Sequence of ARHGEF12, Q9NZN5-2 (Q9NZN5 other isoform, or with tags, fused parts or gaps): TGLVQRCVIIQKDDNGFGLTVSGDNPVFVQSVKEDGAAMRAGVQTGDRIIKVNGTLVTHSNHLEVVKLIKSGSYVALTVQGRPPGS
Sequence of Inadl_9, Q8NI35 (Q8NI35 1530-1615): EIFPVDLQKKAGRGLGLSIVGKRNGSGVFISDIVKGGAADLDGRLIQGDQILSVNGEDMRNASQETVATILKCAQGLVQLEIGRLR
Sequence of DLG2_2, Q15700 (Q15700 189-283): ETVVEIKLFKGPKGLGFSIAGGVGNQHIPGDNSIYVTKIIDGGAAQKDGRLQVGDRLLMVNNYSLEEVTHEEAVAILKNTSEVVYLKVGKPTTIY

Binder | pKd [1] | pKd [2] | pKd [3] | pKd [4] | pKd [5] | pKd [6] | pKd [7] | pKd [8] | pKd [9] | pKd [10] | pKd [11] | pKd [12] | pKd [13] | pKd [14] | pKd [15] | pKd [16] | pKd [17] | pKd [18] | pKd [19] | pKd [20] | also measured
NTLNRKTTPV [CACNG8, Q8WXS5] | below the threshold | 3.91 | 4.05 | 4.61 | below the threshold | 3.85 | 3.72 | 3.61 | below the threshold | below the threshold | below the threshold | 3.94 | below the threshold | 4.2 | below the threshold | below the threshold | below the threshold | 4.93 | below the threshold | 4.04 | pKd [21]: below the threshold; pKd [22]: below the threshold; pKd [23]: below the threshold; pKd [24]: 3.63; pKd [25]: 4.17; pKd [26]: below the threshold
PTPDLPQTRV [KLHDC7A, Q5VTJ3] | below the threshold | 3.54 | 4.13 | below the threshold | below the threshold | 3.8 | 4.89 | below the threshold | below the threshold | below the threshold | below the threshold | 3.87 | below the threshold | 4.36 | 3.51 | below the threshold | below the threshold | 3.86 | below the threshold | below the threshold | pKd [21]: 3.72; pKd [22]: below the threshold; pKd [23]: below the threshold; pKd [24]: 3.59; pKd [25]: 4.18; pKd [26]: 3.86
ARGPPRESEV [FAM110D, Q8TAY7] | below the threshold | 3.69 | 3.82 | 5.3 | below the threshold | 3.5 | 3.51 | below the threshold | below the threshold | below the threshold | below the threshold | 3.87 | below the threshold | 3.81 | 3.53 | below the threshold | 4.15 | 4.56 | below the threshold | 3.77 | pKd [21]: below the threshold; pKd [22]: below the threshold; pKd [23]: below the threshold; pKd [24]: 4.4; pKd [25]: below the threshold; pKd [26]: below the threshold
